Several values for one entry are separate records, joined by “and”; a condition that tells them apart may be missing. Identical values can stand only once. Like-named read-outs stand apart in the source and are kept apart here. One block for each molecule: values may come before it.
Experiments:
[1] = molecular target: Nrx1β-Fc (neurexin-1β C-terminally fused to human Fc) (UniProt Q63373)
[2] = molecular target: Nlg1-GFP, wild type, in HEK cell lysate (UniProt Q99K10); experiment: single molecule pull-down with counting of photobleaching steps
[3] = molecular target: Nlg1^E584A/L585A-GFP, in HEK cell lysate (UniProt Q99K10); experiment: as above
[4] = molecular target: Nrx1β-Fc (neurexin-1β C-terminally fused to human Fc) (UniProt Q63373); remark: listed apart in the source
[5] = molecular target: Nrx1β-Fc (neurexin-1β C-terminally fused to human Fc) (UniProt Q63373); remark: listed apart in the source
[6] = molecular target: Nrx1β-Fc (neurexin-1β C-terminally fused to human Fc) (UniProt Q63373); remark: listed apart in the source
[7] = molecular target: Nrx1β-Fc (neurexin-1β C-terminally fused to human Fc) (UniProt Q63373); experiment: FRAP of soluble fluorescent protein bound to ligand-coated micropatterns

koff of the reaction part of the PSD-95-GFP FRAP curves [1]: 0.005 s⁻¹ and 0.008 s⁻¹
Molecule: AP-Nlg1 (AP-tagged Nlg1, full length), expressed in COS-7 cells (from UniProt Q62765 46-843) (receptor)

stoichiometry N [2]: 2
Molecule: Nlg1-GFP, wild type, in HEK cell lysate (from UniProt Q99K10 46-843) (receptor)

percent in a monomeric form (1 photobleaching step) [3]: 55%
Molecule: Nlg1^E584A/L585A-GFP, in HEK cell lysate (from UniProt Q99K10 46-843) (receptor)

enrichment level E (fluorescence on ligand stripes / PEG lines) [4]: 2.5
Molecule: HA-Nlg1^E584A/L585A-GFP (-21), expressed in COS-7 cells (from UniProt Q99K10 46-843) (receptor)

enrichment level E (fluorescence on ligand stripes / PEG lines) [5]: 2.3 | koff [6]: 0.004 s⁻¹
Molecule: HA-Nlg1-GFP (-21), wild type, expressed in COS-7 cells (from UniProt Q99K10 46-843) (receptor)

koff [7]: ~0.0015 s⁻¹
B1: Nlg1-HaloTag-AF488 (purified dimeric Nlg1 C-terminally fused to Halo-tag, conjugated to AF488) (other)
chain: QKLDDVDPLVTTNFGKIRGIKKELNNEILGPVIQFLGVPYAAPPTGEHRFQPPEPPSPWSDIRNATQFAPVCPQNIIDGRLPEVMLPVWFTNNLDVVSSYVQDQSEDCLYLNIYVPTEDVKRISKECARKPGKKICRKGDIRDSGGPKPVMVYIHGGSYMEGTGNLYDGSVLASYGNVIVITVNYRLGVLGFLSTGDQAAKGNYGLLDLIQALRWTSENIGFFGGDPLRITVFGSGAGGSCVNLLTLSHYSEGNRWSNSTKGLFQRAIAQSGTALSSWAVSFQPAKYARILATKVGCNVSDTVELVECLQKKPYKELVDQDVQPARYHIAFGPVIDGDVIPDDPQILMEQGEFLNYDIMLGVNQGEGLKFVENIVDSDDGVSASDFDFAVSNFVDNLYGYPEGKDVLRETIKFMYTDWADRHNPETRRKTLLALFTDHQWVAPAVATADLHSNFGSPTYFYAFYHHCQTDQVPAWADAAHGDEVPYVLGIPMIGPTELFPCNFSKNDVMLSAVVMTYWTNFAKTGDPNQPVPQDTKFIHTKPNRFEEVAWTRYSQKDQLYLHIGLKPRVKEHYRANKVNLWLELVPHLHNLNDISQYTSTTTKVPSTDITLRPTRKNSTPVTSAFPTAKQDDPKQQPSPFSVDQRDYSTELS
modifications: HaloTag-Alexa488 ligand (Promega G1002) coupled to the HaloTag

Reference: doi:10.1101/2024.03.17.584836 (bioRxiv, 2024)
